Four molecules from paper doi:10.1101/2021.02.18.431817 can be followed below.

Assay in all cases: EMSA
On the technique in general: Mobility shift assays separate free from complexed probe on a gel.

The target in data set [1] is T1, AtGAPC1 (Arabidopsis thaliana, UniProt P25858 1-338).
Data set [2] has as its target T1, AtGAPC1. This is another data set of the same source.
The target of the next data set is GAPDH from rabbit muscle (rabbit, UniProt P46406 1-333).
Another data set has as its target AtGAPC2 (Arabidopsis thaliana, UniProt Q9FX54 1-338).

Where two headings read alike, the source gives them in different places.

T1 sequence (P25858 whole entry): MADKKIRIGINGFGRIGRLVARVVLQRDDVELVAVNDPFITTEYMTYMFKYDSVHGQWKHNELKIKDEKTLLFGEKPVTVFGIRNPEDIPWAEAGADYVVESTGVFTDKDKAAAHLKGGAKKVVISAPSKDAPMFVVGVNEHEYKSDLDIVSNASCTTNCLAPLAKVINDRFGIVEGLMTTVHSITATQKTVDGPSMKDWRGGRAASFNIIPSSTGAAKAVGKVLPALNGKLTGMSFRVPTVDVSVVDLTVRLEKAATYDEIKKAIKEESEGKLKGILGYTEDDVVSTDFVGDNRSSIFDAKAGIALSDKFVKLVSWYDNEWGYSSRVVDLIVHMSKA
AtGAPC2, sequence (Q9FX54 whole entry): as the sequence (P25858 whole entry) above, with N61H, I65V, E68D, A92G, Y98F, A227S, L274M counted along it
GAPDH from rabbit muscle, sequence (P46406 whole entry): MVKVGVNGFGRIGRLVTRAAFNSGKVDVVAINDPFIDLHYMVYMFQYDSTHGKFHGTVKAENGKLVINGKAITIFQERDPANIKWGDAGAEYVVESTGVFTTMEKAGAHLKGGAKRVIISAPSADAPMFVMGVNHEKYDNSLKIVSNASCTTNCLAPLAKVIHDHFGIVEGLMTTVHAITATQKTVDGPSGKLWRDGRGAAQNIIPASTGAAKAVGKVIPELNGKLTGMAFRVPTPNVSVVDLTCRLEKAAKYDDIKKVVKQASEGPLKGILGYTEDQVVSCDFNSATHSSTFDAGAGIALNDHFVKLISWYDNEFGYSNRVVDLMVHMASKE

On to UUAGCGUUUUAAUGUUGAGUGAGUAAGUUAAGGGGUU (ssRNA) [Random RNA (AT5G16470 5'-UTR, mutated M2)], for which, in the data set with AtGAPC1 [1], the binding result was “no binding”.

Turning to ACCAGAUUUUUUUCGCCGGAGUUUGUUUUGAUCCA (ssRNA) [SAP3 M1], the binding result with AtGAPC1 [2], with GAPDH from rabbit muscle and with AtGAPC2 was “binds” each time.

For AUAUAUUCUCCGGAGAA (ssRNA) [M1-RNA (consensus)], the binding result with AtGAPC1 [1] is recorded as “binds”.

With AUAUAUGAGAUUAGGGUUU (ssRNA) [M2-RNA (consensus)], in the data set with AtGAPC1 [1], the binding result is “binds”.
